Literature values, collected in PMC8384639.

Target: Histone H3 K4me3 peptide 1-15 (Homo sapiens) (UniProt P68431)

Kd: 2.7 µM
Substance: BPTF PHD (from UniProt Q12830)
